Data reported in publication PMC12775124, “CUL4A-DDB1-DCAF10 is an N-recognin for N-terminally acetylated Src kinases” (Nature Communications, 2026).

Legend:
CUL4A-DDB1-DCAF10 = test: In vitro ubiquitination of Lyn-GFP variants by CUL4A-DDB1-DCAF10; type: biochemical, human; conditions: relative to Lyn^WT-GFP, NMT1/2 siRNA 72 h, mean ± s.d., n = 3
From the text: Lyn^WT-GFP was ubiquitinated by the WT E3 complex in both conditions; however, unlike in vitro ubiquitination with endogenous Lyn (Fig. 5c, d), ubiquitination increased ~6-fold under NMT1/2 siRNA conditions. This is consistent with DCAF10 being limiting and overexpressed Lyn-GFP, accumulating an acetylated fraction available for DCAF10 in vitro. Then, we performed IPs for all Nt variants under NMT1/2 siRNA conditions (Fig. 6d, h–i). […] In vitro ubiquitination assays using untreated cell lysates led to similar results (Supplementary Fig. 7h, i).
Reactions contained E1, UBCH5B (E2), ubiquitin, Mg-ATP in ligation buffer and were incubated with bead-bound substrates, followed by washing and immunoblot detection of ubiquitinated species (anti-ubiquitin), with loading controls (anti-Lyn, -Fyn, -Src or -GFP) (n = 3 independent enzymatic assays). Complete reagent lists, complex preparation, substrate IP conditions, wash buffers, and gel/blot parameters are provided in the Supplementary Methods and Tables.
357 (v/v) glycerol, 2 mM TCEP, supplemented with Protease Inhibitor Cocktail), and lysed
358 by sonication. Lysates were cleared by centrifugation at 28,000 rpm for 45 min at 4 °C […]
382 EDTA, and loaded on a gradient gel (4–15%). Ubiquitination of substrates was assessed
383 by WB using an anti-ubiquitin antibody. Equal substrate loading was evaluated by anti- […]

[1] = system: DLD-1 Lyn KO Flp-In T-REx cells; test: Direct ubiquitin blot of Lyn-GFP immunoprecipitates; type: cell-based, human; conditions: anti-GFP IP, anti-Ub blot, n = 3
Method: Fig. 6 N-terminal glycine mutation abolishes DCAF10-dependent stability and ubiquitination. a DLD-1 Flp-In T-REx cells and Lyn KO cells expressing Lyn^WT-GFP, Lyn^G2A-GFP, or Lyn^G2P-GFP were induced for 24 h with 100 ng/mL doxycycline. Cells were treated with NMT1/2 siRNA, DCAF10 siRNA, or both (or left untreated) for 72 h. Representative WBs are shown. Filled circles represent siRNA treatment, empty circles untreated. b WB quantifications of Lyn levels normalized to vinculin. Purple: untreated with NMT1/2 siRNA; blue: treated with NMT1/2 siRNA. Mean ± s.d. with individual data points are shown (n = 3 independent biological replicates). c Schematic of ubiquitination experiments. Created in BioRender. […] Lysates have been treated with NMT1/2 RNAi for 72 h. i Quantification of in vitro ubiquitination assays. Mean ± s.d. with individual data points are shown (n = 3 independent ubiquitination assays). Volcano plots of Lyn-GFP^WT binding partners: j NMT1/2 siRNA ± doxycycline (Dox); k Control ± doxycycline; l NMT1/2 siRNA vs. control both with doxycycline. The −log10 adjusted p-value (two-sided Student’s t test with permutation-based multiple-testing correction; y-axis) is plotted against the log2 fold change (x-axis). […]
We next assessed the role of the Lyn Nt-residue for ubiquitination by performing two complementary experimental set-ups (Fig. 6c). […]

Molecule | Reduction of ubiquitination by the WT complex (CUL4A-DDB1-DCAF10) | Ubiquitination in cells (in words) [1]
Lyn^G2A-GFP: Nt-mutant (G2A) Lyn-GFP (protein, UniProt P07948 2-512, looked up, variant G2A, GFP fusion) Tyrosine-protein kinase Lyn: ACIKSKGKDSLSDDGVDLKTQPVRNTERTIYVRDPTSNKQQRPVPESQLLPGQRFQTKDPEEQGDIVVALYPYDGIHPDDLSFKKGEKMKVLEEHGEWWKAKSLLTKKEGFIPSNYVAKLNTLETEEWFFKDITRKDAERQLLAPGNSAGAFLIRESETLKGSFSLSVRDFDPVHGDVIKHYKIRSLDNGGYYISPRITFPCISDMIKHYQKQADGLCRRLEKACISPKPQKPWDKDAWEIPRESIKLVKRLGAGQFGEVWMGYYNNSTKVAVKTLKPGTMSVQAFLEEANLMKTLQHDKLVRLYAVVTREEPIYIITEYMAKGSLLDFLKSDEGGKVLLPKLIDFSAQIAEGMAYIERKNYIHRDLRAANVLVSESLMCKIADFGLARVIEDNEYTAREGAKFPIKWTAPEAINFGCFTIKSDVWSFGILLYEIVTYGKIPYPGRTNADVMTALSQGYRMPRVENCPDELYDIMKMCWKEKAEERPTFDYLQSVLDDFYTATEGQYQQQP | ~ 82 ± 13% | no detectable ubiquitination
Lyn^G2P-GFP: Nt-mutant (G2P) Lyn-GFP (protein, UniProt P07948 2-512, looked up, variant G2P, C-terminal GFP fusion) Tyrosine-protein kinase Lyn: PCIKSKGKDSLSDDGVDLKTQPVRNTERTIYVRDPTSNKQQRPVPESQLLPGQRFQTKDPEEQGDIVVALYPYDGIHPDDLSFKKGEKMKVLEEHGEWWKAKSLLTKKEGFIPSNYVAKLNTLETEEWFFKDITRKDAERQLLAPGNSAGAFLIRESETLKGSFSLSVRDFDPVHGDVIKHYKIRSLDNGGYYISPRITFPCISDMIKHYQKQADGLCRRLEKACISPKPQKPWDKDAWEIPRESIKLVKRLGAGQFGEVWMGYYNNSTKVAVKTLKPGTMSVQAFLEEANLMKTLQHDKLVRLYAVVTREEPIYIITEYMAKGSLLDFLKSDEGGKVLLPKLIDFSAQIAEGMAYIERKNYIHRDLRAANVLVSESLMCKIADFGLARVIEDNEYTAREGAKFPIKWTAPEAINFGCFTIKSDVWSFGILLYEIVTYGKIPYPGRTNADVMTALSQGYRMPRVENCPDELYDIMKMCWKEKAEERPTFDYLQSVLDDFYTATEGQYQQQP | ~ 84 ± 10% | no detectable ubiquitination
